The results in this text go back to US20250034222A1 (MONASH UNIVERSITY, published 2025).

This data set concerns the molecule itself. Nature of the data set: SEC. A general note: In gel filtration, larger molecules generally elute earlier.

B1: Wild-type IL-38 (residues 3-152), untagged after TEV cleavage of the N-terminal His10 tag (ligand)
chain: SLPMARYYIIKYADQKALYTRDGQLLVGDPVADNCCAEKICILPNRGLARTKVPIFLGIQGGSRCLACVETEEGPSLQLEDVNIEELYKGGEEATRFTFFQSSSGSAFRLEAAAWPGWFLCGPAEPQQPVQLTKESEPSARTKFYFEQSW
notes: Uncut protein was removed for the Peak A pool; also called IL-38 (WT); WT (D51A) IL-38
As to B1, the binding result is reported as “binds”.
